# Assay results reported in article PMC8441410, “Phospho‐regulated Bim1/EB1 interactions trigger Dam1c ring assembly at the budding yeast outer kinetochore” (The EMBO Journal, 2021).
# T1: Bik1-6xHis (S. cerevisiae, UniProt P11709 1-440)
# T1 construct: Bik1, S. cerevisiae CLIP-170 homolog; Detected with an anti-penta-His antibody in SEC fractions; also called Bik1/CLIP-170; source: E. coli BL21 Rosetta, purified (HisTrap, gel filtration)
# T1 sequence (looked up): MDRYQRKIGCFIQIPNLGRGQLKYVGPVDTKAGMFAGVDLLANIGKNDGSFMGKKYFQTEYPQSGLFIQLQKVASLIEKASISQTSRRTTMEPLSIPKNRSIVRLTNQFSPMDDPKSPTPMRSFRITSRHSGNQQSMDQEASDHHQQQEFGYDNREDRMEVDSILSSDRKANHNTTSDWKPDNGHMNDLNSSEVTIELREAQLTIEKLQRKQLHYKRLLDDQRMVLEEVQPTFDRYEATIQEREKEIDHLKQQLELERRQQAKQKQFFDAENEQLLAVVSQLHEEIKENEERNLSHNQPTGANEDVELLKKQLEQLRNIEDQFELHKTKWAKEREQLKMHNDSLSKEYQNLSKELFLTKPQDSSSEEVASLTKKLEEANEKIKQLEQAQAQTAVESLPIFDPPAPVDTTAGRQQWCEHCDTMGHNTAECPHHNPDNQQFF
# B1: Duo1 subunit within recombinant Dam1^WTc (natural protein, S. cerevisiae, UniProt P53168 1-247, looked up)
# chain: MSEQSQLDDSTIDKLIPQIFNEMRSNLNNTTNKFPKSTGGGASDNISANSNSIRSFNSITTQSLLKESESLDKITAMIKNVTAALKNNLPVYVNQVHEVCKSTNSILDSWINIHSQAGYIHKLMSDQTYLKLINDRLHNENVNTNDEDGSTLHNVIALKKKEILDLRQKLENRKGEKDAAPAKPPNQGLNPRYGVQSGRRPVPSAGISNNGRVRKTHVPASKRPSGIPRVTNRWTKPTASSSRKMFR
# notes: Duo1, subunit of the Dam1 complex, S. cerevisiae; Stood in the cross-linking experiment as a subunit of m1; source: E. coli, purified as part of Dam1c
# B2: Dam1 subunit within recombinant Dam1^WTc (natural protein, S. cerevisiae, UniProt P53267 1-343, looked up)
# chain: MSEDKAKLGTTRSATEYRLSIGSAPTSRRSSMGESSSLMKFADQEGLTSSVGEYNENTIQQLLLPKIRELSDSIITLDSNFTRLNFIHESLADLNESLGSLLYGIMSNSWCVEFSQAPHDIQDDLIAIKQLKSLEDEKNNLVMELSNMERGIKRKKDEQGENDLAKASQNKQFNQPLFPSSQVRKYRSYDNRDKRKPSKIGNNLQVENEEDYEDDTSSEASFVLNPTNIGMSKSSQGHVTKTTRLNNNTNSKLRRKSILHTIRNSIASGADLPIENDNVVNLGDLHPNNRISLGSGAARVVNGPVTKNRNSMFSGRAERKPTESRHSVAKKTEKKINTRPPFR
# notes: Dam1, subunit of the Dam1 complex, S. cerevisiae; Stood in the cross-linking experiment as a subunit of m1; source: E. coli, purified as part of Dam1c
# B3: Spc34 subunit within recombinant Dam1^WTc (natural protein, S. cerevisiae, UniProt P36131 1-295, looked up)
# chain: MGESLDRCIDDINRAVDSMSTLYFKPPGIFHNAILQGASNKASIRKDITRLIKDCNHDEAYLLFKVNPEKQSVSRRDGKEGVFDYVIKRDTDMKRNRRLGRPGEKPIIHVPKEVYLNKDRLDLNNKRRRTATTSGGGLNGFIFDTDLIGSSVISNSSSGTFKALSAVFKDDPQIQRLLYALENGSVLMEEESNNQRRKTIFVEDFPTDLILKVMAEVTDLWPLTEFKQDYDQLYHNYEQLSSKLRFIKKEVLLQDDRLKTMSQYHPSSSHDVAKIIRKEKDEIRRLEMEIANLQE
# notes: Spc34, subunit of the Dam1 complex, S. cerevisiae; Stood in the cross-linking experiment as a subunit of m1; source: E. coli, purified as part of Dam1c
# B4: Spc19 subunit within recombinant Dam1^WTc (natural protein, S. cerevisiae, UniProt Q03954 1-165, looked up)
# chain: MTDALEQSVLALEGTVSVLKDSVESLKCANEPSTNLASTMLQTKRVFRLVPEYDVERSKLDLIEEVEPLVRTLGDKLRKSMGRMQRELDTLQQTYELNDLRLKKNISMDDDDALNSPDMGQEYEGRDADDVVMMASSTNEELEELKKLKEKKKQLENKLEILKQK
# notes: Spc19, subunit of the Dam1 complex, S. cerevisiae; Stood in the cross-linking experiment as a subunit of m1; source: E. coli, purified as part of Dam1c
# B5: Bim1 (yeast homolog of EB1), recombinant (natural protein, S. cerevisiae, UniProt P40013 1-344, looked up)
# chain: MSAGIGESRTELLTWLNGLLNLNYKKIEECGTGAAYCQIMDSIYGDLPMNRVKFNATAEYEFQTNYKILQSCFSRHGIEKTVYVDKLIRCKFQDNLEFLQWLKKHWIRHKDESVYDPDARRKYRPIITNNSATKPRTVSNPTTAKRSSSTGTGSAMSGGLATRHSSLGINGSRKTSVTQGQLVAIQAELTKSQETIGSLNEEIEQYKGTVSTLEIEREFYFNKLRDIEILVHTTQDLINEGVYKFNDETITGHGNGNGGALLRFVKKVESILYATAEGFEMNDGEDELNDKNLGEHGTVPNQGGYANSNGEVNGNEGSNHDVIMQNDEGEVGVSNNLIIDEETF
# notes: Bim1, S. cerevisiae microtubule plus end-tracking protein; CH domain, linker, coiled coil, EBH domain, C-terminal ETF; also called Bim1/EB1; source: E. coli, purified (GSTrap, further steps as in Zimniak et al 2009)
# B6: Dad4 subunit within recombinant Dam1^WTc (natural protein, S. cerevisiae, UniProt P69851 1-72, looked up)
# chain: MENPHEQVQANILSRIIGNVKRLNESVAILNQELVTINNRNKNLEIMGAICDNYHSSVQFNLEATNNKKPPL
# notes: Dad4, subunit of the Dam1 complex, S. cerevisiae; Stood in the cross-linking experiment as a subunit of m1; source: E. coli, purified as part of Dam1c
# Columns and labels:
# [1] = target: B5; assay: cross-linking; BS3-H12/D12 600 µM, 35°C, 45 min; 60 µg Dam1c without or with 7.4 µg Bim1; cross-linked lysines identified by mass spectrometry; conditions: both partners purified
# [2] = target: B3; assay: as above; conditions: both partners purified
# [3] = target: B2; assay: as above; conditions: both partners purified
# [4] = target: B1; assay: as above; conditions: both partners purified
# [5] = target: T1, Bik1-6xHis; assay: SEC; analytical, Superose 6 Increase 3.2/300; 25 mM HEPES pH 7.4, 200 mM NaCl, 1 mM MgCl2, 0.5 mM TCEP, 2.5% glycerol; fractions by SDS-PAGE or Western blot; Dam1c with Bim1-Bik1 also at 5, 7.5, 10 µM input and at 100 mM NaCl; conditions: both partners purified
# [6] = target: Dam1 complex, wild type (Dam1^WTc), recombinant, with Hsk3-6xHis (S. cerevisiae) (UniProt P53267); assay: pull-down; Ndc80c-Flag on anti-Flag M2 agarose beads (loaded from Sf9 lysate, washed); Dam1c or Bim1 alone or Dam1c pre-incubated with increasing Bim1 (up to 16 µM), 4°C 15 min; 25 mM HEPES pH 7.4, 200 mM NaCl, 0.01% Triton X-100; eluted with 3xFlag peptide, SDS-PAGE
binding result [1],Binder,further results
binds,B1,binding result [2]: binds; binding result [3]: binds
binds,B2,
binds,B3,
binds,B4,binding result [4]: binds
,B5,binding result [5]: binds; decrease of the amount of Dam1c bound to Ndc80c with Bim1 up to 16 µM [6]: 30%
binds,B6,
